Measured values from paper doi:10.1101/2024.08.14.607909 (bioRxiv, 2024).

B1: C-terminal pentraxin domain of human PTX3 (domain or fragment)
chain: ELEGCETAILFPMRSKKIFGSVHPVRPMRLESFSACIWVKATDVLNKTILFSYGTKRNPYEIQLYLSYQSIVFVVGGEENKLVAEAMVSLGRWTHLCGTWNSEEGLTSLWVNGELAATTVEMATGHIVPEGGILQIGQEKNGCCVGGGFDETLAFSGRLTGFNIWDSVLSNEEIRETGGAESCHIRGNIVGWGVTEIQPHGGAQYVS
modifications: N-linked glycan at N220
B2: Δ1-24_PTX3 (PTX3 truncation mutant with residues 1-24 of the mature protein deleted) (domain or fragment, human)
chain: ELEDPTPCACGQEHSEWDKLFIMLENSQMRERMLLQATDDVLRGELQRLREELGRLAESLARPCAPGAPAEARLTSALDELLQATRDAGRRLARMEGAEAQRPEEAGRALAAVLEELRQTRADLHAVQGWAARSWLPAGCETAILFPMRSKKIFGSVHPVRPMRLESFSACIWVKATDVLNKTILFSYGTKRNPYEIQLYLSYQSIVFVVGGEENKLVAEAMVSLGRWTHLCGTWNSEEGLTSLWVNGELAATTVEMATGHIVPEGGILQIGQEKNGCCVGGGFDETLAFSGRLTGFNIWDSVLSNEEIRETGGAESCHIRGNIVGWGVTEIQPHGGAQYVS
modifications: N-linked glycan at N220

What was measured:
crystal structure = target: the molecule itself; assay: crystal structure
SEC-SAXS = target: the molecule itself; assay: SEC-SAXS

Row | Protein | binding result (crystal structure) | binding result (SEC-SAXS)
1 | B1 | binds | 
2 | B2 |  | binds
